Experimental data from article PMC2725194.

Assays:
Test in all cases: AlphaScreen or HTRF
[1] = target: PPARα ligand binding domain (LBD)
[2] = target: PPARγ ligand binding domain (LBD)
[3] = target: PPARδ ligand binding domain (LBD)

AlphaScreen signal [1]: < 800 | AlphaScreen signal [2]: < 800 | AlphaScreen signal [3]: < 800
Substance: N-terminal biotinylated CBP1 peptide
